We go through six molecules from PMC11480477, “STIC2 selectively binds ribosome-nascent chain complexes in the cotranslational sorting of Arabidopsis thylakoid proteins” (The EMBO Journal, 2024).

Where a chain is given by its changes, count along the chain named.

First the molecules themselves.
T1: Alb4C-His R399G (UniProt Q9FYL3 334-499, R399G)
T1 construct: Alb4, C-terminal region aa 334–499, in pET29b; source: E. coli Rosetta2 (DE3) or BL21 (DE3), purified (HisTrap HP); not shown: His tag, C-terminal, kept
T1 sequence (looked up): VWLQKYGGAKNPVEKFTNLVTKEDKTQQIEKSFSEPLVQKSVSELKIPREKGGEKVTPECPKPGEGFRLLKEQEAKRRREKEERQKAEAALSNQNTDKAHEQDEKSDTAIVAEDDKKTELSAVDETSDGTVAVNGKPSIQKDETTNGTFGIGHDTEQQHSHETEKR

T2: Alb4C-His F400G (UniProt Q9FYL3 334-499, F400G)
T2 construct: Alb4, C-terminal region aa 334–499, in pET29b; source: E. coli Rosetta2 (DE3) or BL21 (DE3), purified (HisTrap HP); not shown: His tag, C-terminal, kept
T2 sequence (looked up): T1 sequence (looked up) with G66R, F67G

T3: Alb4C-His E407G (UniProt Q9FYL3 334-499, E407G)
T3 construct: Alb4, C-terminal region aa 334–499, in pET29b; source: E. coli Rosetta2 (DE3) or BL21 (DE3), purified (HisTrap HP); not shown: His tag, C-terminal, kept
T3 sequence (looked up): T1 sequence (looked up) with G66R, E74G

T4: Alb4C-His R410G (UniProt Q9FYL3 334-499, R410G)
T4 construct: Alb4, C-terminal region aa 334–499, in pET29b; source: E. coli Rosetta2 (DE3) or BL21 (DE3), purified (HisTrap HP); not shown: His tag, C-terminal, kept
T4 sequence (looked up): T1 sequence (looked up) with G66R, R77G

T5: Alb4C-His (aa 334–499) (UniProt Q9FYL3 334-499)
T5 construct: Alb4, stromal C-terminal region aa 334–499, in pET29b; also called C-terminal region of Alb4; source: E. coli Rosetta2 (DE3) or BL21 (DE3), purified (HisTrap HP); not shown: His tag, C-terminal, kept
T5 sequence (looked up): T1 sequence (looked up) with G66R

T6: GST-STIC2 E112A (A. thaliana, UniProt O82230 49-182, E112A)
T6 construct: STIC2 of A. thaliana, mature protein aa 49–182, in pGEX4T3; source: E. coli Rosetta2 (DE3) or BL21 (DE3), purified (glutathione sepharose); not shown: GST, N-terminal, kept
T6 sequence (looked up): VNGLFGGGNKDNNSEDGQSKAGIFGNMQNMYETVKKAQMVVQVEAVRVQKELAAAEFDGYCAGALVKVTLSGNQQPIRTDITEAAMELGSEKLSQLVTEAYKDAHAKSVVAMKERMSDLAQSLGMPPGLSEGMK

T7: GST-STIC2 E131G (A. thaliana, UniProt O82230 49-182, E131G)
T7 construct: STIC2 of A. thaliana, mature protein aa 49–182, in pGEX4T3; The results speak only of E131; source: E. coli Rosetta2 (DE3) or BL21 (DE3), purified (glutathione sepharose); not shown: GST, N-terminal, kept
T7 sequence (looked up): T6 sequence (looked up) with A64E, E83G

T8: GST-STIC2 E112A K115A (A. thaliana, UniProt O82230 49-182, E112A | K115A)
T8 construct: STIC2 of A. thaliana, mature protein aa 49–182, in pGEX4T3; also called STIC2 E112A K115A double mutant; source: E. coli Rosetta2 (DE3) or BL21 (DE3), purified (glutathione sepharose); not shown: GST, N-terminal, kept
T8 sequence (looked up): T6 sequence (looked up) with K67A

B1: GST-STIC2 (natural protein, A. thaliana, UniProt O82230 49-182, looked up)
chain: T6 sequence (looked up) with A64E
notes: STIC2 of A. thaliana, mature protein aa 49–182, in pGEX4T3; also called pGEX4T3-GST-STIC2; source: E. coli Rosetta2 (DE3) or BL21 (DE3), purified (glutathione sepharose); not shown: GST, N-terminal, kept
B2: His-STIC2 (mature STIC2, aa 49–182) (natural protein, A. thaliana, UniProt O82230 49-182, looked up)
chain: T6 sequence (looked up) with A64E
notes: STIC2 of A. thaliana, mature protein aa 49–182 (transit peptide predicted with TargetP), in pET-Duet1; The N-terminal place of the tag is read from the printed name His-STIC2; also called recombinant mature His-STIC2; suppressor of tic40 protein 2; source: E. coli Rosetta2 (DE3) or BL21 (DE3), purified (HisTrap HP, native conditions); not shown: His tag, N-terminal, kept
B3: GST-STIC2 K115A (natural protein, A. thaliana, UniProt O82230 49-182, looked up)
chain: T6 sequence (looked up) with A64E, K67A
notes: STIC2 of A. thaliana, mature protein aa 49–182, in pGEX4T3; source: E. coli Rosetta2 (DE3) or BL21 (DE3), purified (glutathione sepharose); not shown: GST, N-terminal, kept
B4: Alb3C-His (aa 350–462) (domain or fragment, UniProt Q8LBP4 350-462, looked up)
chain: VYLRKLGGAKPNMDENASKIISAGRAKRSIAQPDDAGERFRQLKEQEKRSKKNKAVAKDTVELVEESQSESEEGSDDEEEEAREGALASSTTSKPLPEVGQRRSKRSKRKRTV
notes: Alb3, stromal C-terminal region aa 350–462, in pET29b; also called C-terminal region of Alb3; source: E. coli Rosetta2 (DE3) or BL21 (DE3), purified (HisTrap HP); not shown: His tag, C-terminal, kept
B5: Alb3 peptide aa 386–400 (15mer pepspot) (peptide, UniProt Q8LBP4 386-400, looked up)
peptide: GERFRQLKEQEKRSK
notes: largely Motif III; source: synthetic peptide, spot on a membrane (JPT Peptide Technologies)
B6: Alb4 peptide aa 394–408 (15mer pepspot) (peptide, UniProt Q9FYL3 394-408, looked up)
peptide: PKPGERFRLLKEQEA
notes: as for B5

Holding throughout (details): both partners purified
One experiment concerns the target T1, Alb4C-His R399G. Put plainly: pull-down; 20 µg GST-STIC2 variants with 20 µg Alb4C-His variants in PBS, 120 µl, room temperature; glutathione sepharose; eluates by immunoblot, coelution quantified with ImageJ. In general terms: In western blotting, separated proteins are transferred to a membrane and probed.
The target in the next experiment is T2, Alb4C-His F400G. Described as above.
Another experiment concerns the target T3, Alb4C-His E407G. Described as above.
Another experiment has as its target T4, Alb4C-His R410G. The experiment is described as above.
For experiment [1], the target named is T5, Alb4C-His (aa 334–499). Put plainly: ITC; His-STIC2 titrated (1.5 mM into 0.15 mM Alb3C-His or Alb3CΔIII-His; 1 mM into 0.1 mM Alb4C-His or Alb4CΔIII-His); 20 mM HEPES, 150 mM NaCl, pH 8.0, 25 °C; one-site binding model; two to five independent experiments. Background: In ITC the heat of successive injections is recorded.
Experiment [2] addresses T5, Alb4C-His (aa 334–499). Put plainly: pull-down; 20 µg GST-STIC2 variants with 20 µg Alb4C-His variants in PBS, 120 µl, room temperature; glutathione sepharose; eluates by immunoblot, coelution quantified with ImageJ.
A further experiment addresses T6, GST-STIC2 E112A. Briefly: pull-down; 20 µg GST-STIC2 variants with 20 µg Alb3C-His in PBS with 160 mM NaCl, 120 µl, room temperature; glutathione sepharose; eluates by immunoblot, coelution quantified with ImageJ.
The next experiment deals with T7, GST-STIC2 E131G. The experiment is described as above.
For the next experiment, the target named is T8, GST-STIC2 E112A K115A. The experiment is described as above.
Experiment [3] addresses B2. Put plainly: ITC; His-STIC2 titrated (1.5 mM into 0.15 mM Alb3C-His or Alb3CΔIII-His; 1 mM into 0.1 mM Alb4C-His or Alb4CΔIII-His); 20 mM HEPES, 150 mM NaCl, pH 8.0, 25 °C; one-site binding model; two to five independent experiments.
The target in experiment [4] is B2. Put plainly: peptide or protein array; pepspot membranes with 15mer peptides of Alb3 (aa 155–208, 282–462) and Alb4 (aa 139–192, 266–499); His-STIC2 5 µg/ml for 3 h at room temperature, TBST washes, detection with anti-His HRP conjugate.

Turning to B1, the binding result with Alb4C-His R399G, in the experiment with Alb4C-His F400G, in the experiment with Alb4C-His E407G and in the experiment with Alb4C-His R410G was “binds” each time.
By Kd is commonly meant a measure of binding affinity in units of concentration. The low end stands for tighter binding, the high end for weaker binding. As for B2, the Kd with Alb4C-His (aa 334–499) [1] was determined as 17 µM.
Turning to B3, the binding result in the experiment with Alb4C-His (aa 334–499) [2] is “binds”.
For B4, the “percent reduction of binding against GST-STIC2” value with GST-STIC2 E112A was ~15%; with GST-STIC2 E131G, ~80%; with GST-STIC2 E112A K115A, ~80%. The same molecule came in with a Kd in experiment [3] of 150 µM.
With B5, the binding result in experiment [4] is recorded as “binds”.
Still for that read-out and setting: the result for B6 reads “binds”.
